# Data reported in patent US20090111753A1, “Nogo-A Polypeptide Fragments, Variant Nogo Receptor-1 Polypeptides, and Uses Thereof” (Yale University, priority 2004, published 2009).
# T1: NgR (Homo sapiens, UniProt Q9BZR6)
# T1 construct: expressed in transfected cells; host or cells: COS-7
# T1 sequence (Q9BZR6 27-447): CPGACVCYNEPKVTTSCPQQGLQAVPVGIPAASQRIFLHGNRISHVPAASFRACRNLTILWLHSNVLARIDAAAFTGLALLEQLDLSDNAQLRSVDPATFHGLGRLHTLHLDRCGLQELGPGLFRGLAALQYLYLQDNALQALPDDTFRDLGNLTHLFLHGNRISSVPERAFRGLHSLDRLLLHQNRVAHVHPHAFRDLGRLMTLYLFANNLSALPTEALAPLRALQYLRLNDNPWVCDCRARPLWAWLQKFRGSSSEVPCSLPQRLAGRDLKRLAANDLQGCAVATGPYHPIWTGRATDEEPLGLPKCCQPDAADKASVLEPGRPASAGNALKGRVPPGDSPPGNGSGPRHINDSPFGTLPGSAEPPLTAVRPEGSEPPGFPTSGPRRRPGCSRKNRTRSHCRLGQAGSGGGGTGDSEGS
# B1: B4: fusion protein of GST and B4 fragment (carboxyl terminal 150 aa) of Amino-Nogo (protein)
# chain: SKTDSFSKLAREYTDLEVSHKSEIANAPDGAGSLPCTELPHDLSLKNIQPKVEEKISFSDDFSKNGSATSKVLLLPPDVSALATQAEIESIVKPKVLVKEAEKKLPSDTEKEDRSPSAIFSAELSKTSVVDLLYWRDIKKTG
# modifications: left off: a dimerising Fc or GST
# notes: fusion protein of GST and B4 fragment (carboxyl terminal 150 aa) of Amino-Nogo
# B2: B4C: fusion protein of GST and B4C fragment (carboxyl terminal 75 aa) of Amino-Nogo (protein)
# chain: LLPPDVSALATQAEIESIVKPKVLVKEAEKKLPSDTEKEDRSPSAIFSAELSKTSVVDLLYWRDIKKTG
# modifications: left off: large carriers
# notes: fusion protein of GST and B4C fragment (carboxyl terminal 75 aa) of Amino-Nogo
# B3: a.a. 950-1018 (AmNg B4C): AP fusion protein of Amino-Nogo fragment B4C, aa 950-1018 (protein)
# chain: B2 chain
# modifications: left off: large carriers
# What was measured:
# COS-7 cells = test: Fibroblast spreading assay on dried GST fusion protein; format: cell-based; details: GST fusion protein presented as dried substrate
# Description: FIG. 2A. Effects of Amino-Nogo fragments on fibroblast spreading and neurite outgrowth. Different effects of Amino-Nogo fragments on fibroblast spreading. COS-7 cells were allowed to attach and spread on slides with spots coated with 50 ng of dried GST fusion protein as indicated and stained for F-actin. GST-A: fusion protein of GST and A fragment (FIG. 1) of Amino-Nogo. GST-A, GST-B, GST-Δ20, GST-B4 and GST-B4C: fusion protein of GST and A, B, Δ20, B4 or B4C fragment (FIG. 1) of Amino-Nogo, respectively.
# FIG. 2B. COS-7 cell area for experiments as in (A) was measured and plotted.
# FIG. 2C. COS-7 cells were allowed to attach and spread on 96 well dishes coated with dried GST fusion proteins as indicated. Number of attached cells were counted and plotted as a function of the amount of various proteins dried per well in a 96 well dish.
# It has been recognized that the Amino-Nogo-A protein inhibits non-neuronal cell spreading and axonal outgrowth when the protein is substrate bound (Chen, M. S., et al., Nature 403:434-439 (2000); Fournier, A. E., et al., Nature 409:341-346 (2001)). […] The later domain has been termed Δ20. To determine whether the NgR-interacting aa of Amino-Nogo-A described in Example 1 regulate cell spreading and axonal outgrowth, various fragments were expressed as GST fusion proteins and purified from E. coli. To generate GST fusion proteins, amino Nogo fragments were cloned in pGEX2T (Amersham Pharmacia). Native and soluble GST fusion proteins were expressed and purified as described (GrandPre, T., et al., Nature 403:439-444 (2000)). COS-7 binding assays were done as described (Fournier, A. E., et al., Nature 409:341-346 (2001)). Bound AP to COS-7 cells was measured using NIH image software. Fibroblast spreading and cDRG outgrowth assay were done as described (Fournier, A. E., et al., Nature 409:341-346 (2001)) with some modifications. Briefly, 50 μl of purified GST fusion protein or peptides diluted in PBS was pipetted into polylysine precoated 96 well plates (Becton Dickson Biocoat plates) and dried overnight at room temperature. […]
# E13 chick DRG neurons = test: cDRG neurite outgrowth assay; format: cell-based; details: substrate coated with GST fusion protein
# Description: FIG. 2D. Differential effects of Amino-Nogo fragments on neurite outgrowth. Dissociated neurons from E13 chick DRGs were plated on 96 well dishes coated with lpmol protein per well and stained for neurofilament localization.
# FIG. 2E. Neurite length per neuron were measured and plotted as percentage of PBS control with increasing concentration of dried protein for experiment described in […].
# FIG. 6C. B24/32 peptide inhibits neurite outgrowth. Dissociated neurons from E13 chick DRG were plated onto 96 well dishes coated with 500 pmol of dried peptides as indicated and stained for neurofilament localization.
# FIG. 6D. Neurite length per neuron was measured and plotted as percentage of PBS control for experiments as in (C).
# (§1) It has been recognized that the Amino-Nogo-A protein inhibits non-neuronal cell spreading and axonal outgrowth when the protein is substrate bound (Chen, M. S., et al., Nature 403:434-439 (2000); Fournier, A. E., et al., Nature 409:341-346 (2001)). […] The later domain has been termed Δ20. To determine whether the NgR-interacting aa of Amino-Nogo-A described in Example 1 regulate cell spreading and axonal outgrowth, various fragments were expressed as GST fusion proteins and purified from E. coli. To generate GST fusion proteins, amino Nogo fragments were cloned in pGEX2T (Amersham Pharmacia). Native and soluble GST fusion proteins were expressed and purified as described (GrandPre, T., et al., Nature 403:439-444 (2000)). COS-7 binding assays were done as described (Fournier, A. E., et al., Nature 409:341-346 (2001)). Bound AP to COS-7 cells was measured using NIH image software. Fibroblast spreading and cDRG outgrowth assay were done as described (Fournier, A. E., et al., Nature 409:341-346 (2001)) with some modifications. Briefly, 50 μl of purified GST fusion protein or peptides diluted in PBS was pipetted into polylysine precoated 96 well plates (Becton Dickson Biocoat plates) and dried overnight at room temperature. For fibroblast spreading assay, subconfluent COS-7 cells were then plated for 1 hour in serum containing medium before fixation and staining with rho damine-phalloidin.
# The same GST-Amino-Nogo proteins were tested for their ability to reduce neurite outgrowth from chick E13 DRG neurons. For cDRG outgrowth assay, dissociated E13 cDRG neurons were plated for 6 hours before fixation. […] Cell area, number of attached cells and neurite length were measured using the Imageexpress machine and software (Axon Instrument).
# We reasoned that fusing the 24 aa segment of Amino-Nogo-A to NEP32 antagonist peptide might create a high affinity antagonist with a potency similar to the binding of AP-B4C-66 to NgR. […] Cell area, number of attached cells and neurite length were measured using the linageexpress machine and software (Axon Instrument).
# NgR = target: T1, NgR; test: AP fusion protein binding to NgR expressing COS-7 cells; details: AP fused Amino-Nogo fragments in conditioned media on NgR expressing COS-7 cells; 'No binding at' cells continue on the next line: AmNg A 150 nM; a.a. 1000-1018, a.a. 1005-1018, Amino of NgC 25 nM; a.a. 950-1004 50 nM; Amino of NgB 100 nM
# Source text: Several alkaline phosphatase (AP) fusion proteins containing various Nogo-A segments derived from regions between the amino terminus and the first hydrophobic segment were examined to identify the mechanism of Amino-Nogo-A action. To generate additional AP fusion proteins, human amino Nogo fragments were amplified and ligated to the pcAP6 vector digested with restriction enzymes EcoRI and XhoI as described (Fournier, A. E., et al., Nature 409:341-346 (2001)). Plasmids were then transfected into HEK293T cells and conditioned media were collected after 7 days. None of these fragments bind with high affinity to non-transfected COS-7 cells. […] This binding is saturable with a Kd indistinguishable from that for AP-Nogo-66 association with NgR (Table I). To better define the region responsible for Amino-Nogo interaction with NgR, a range of truncation mutants of Amino-Nogo were examined as AP fusion proteins. […] In fact, the NgR-interacting segment of Amino-Nogo is fully accounted for in the extreme carboxyl 24 amino acids (aa 995-1018, Amino-Nogo-A-24) (Table I and FIG. 1D). […] We named this domain (aa 995-1013) as Amino-Nogo-A-19.
# Binding Kds for AP fused Amino-Nogo fragments were measured by applying conditioned media containing AP fusion protein to NgR expressing COS-7 cells. Bound AP was stained and measured.
# as §1
# NgR mutants = test: AP fusion protein binding to COS-7 cells expressing NgR deletion mutants; details: COS-7 cells expressing NgR mutants; FIG. 3A
# Source text: FIG. 3A. Binding of Amino-Nogo to NgR requires LRR repeats. Binding of AP or AP fused Nogo fragments to COS-7 cells expressing NgR mutants as indicated. AP-B and AP-B4: AP fusion protein of B or B4 fragment of Amino-Nogo. Surface expression of NgR mutants was detected using anti-Myc antibodies.
# Similarly, the cysteine rich LRR-NT and LRR-CT capping domains are essential for Amino-Nogo-B4C binding. […] NgR is part of gene family that includes NgR2 and NgR3. […] By these measures, the NgR requirements for Nogo-66 and Amino-Nogo-B4C binding are indistinguishable.
Molecule,COS-7 cell attachment and spreading (COS-7 cells),neurite outgrowth from chick E13 DRG neurons (E13 chick DRG neurons),Kd (NgR) [nM],binding to NgR with deletion of the CT domain (NgR mutants),binding to NgR with deletions of any two LRRs (NgR mutants),requirement of LRR-NT and LRR-CT capping domains of NgR for binding (NgR mutants)
B1,do not alter COS-7 morphology,not inhibitory for axonal growth,–,–,–,–
B2,do not alter COS-7 morphology,not inhibitory for axonal growth,–,–,–,–
B3,–,–,3.51 ± 3.36,did not alter,eliminated binding,essential
